Assay [1] deals with GPC3 core (sGPC3-His) protein (human) (UniProt P51654). In words: competition ELISA on plate-bound sGPC3; unlabeled GT114 (100-fold) against competitor biotin-labeled GT607; signal of the labeled antibody. (ELISA stands for enzyme-linked immunosorbent assay.)
The target is the same in assay [2]. In words: competition ELISA on plate-bound sGPC3; unlabeled GT114 (100-fold) against competitor biotin-labeled GT607.
The target is the same in assay [3]. In words: competition ELISA on plate-bound sGPC3; unlabeled GT114 (100-fold) against competitor biotin-labeled GT114.
Assay [4] shares this target. In words: competition ELISA on plate-bound sGPC3; unlabeled GT607 (100-fold) against competitor biotin-labeled GT165.
Assay [5] shares this target. In words: competition ELISA on plate-bound sGPC3; unlabeled GT607 (100-fold) against competitor biotin-labeled GT30; signal of the labeled antibody.

Sequence of GPC3 core (sGPC3-His) protein (human) (P51654 25-563 S495A/S509A): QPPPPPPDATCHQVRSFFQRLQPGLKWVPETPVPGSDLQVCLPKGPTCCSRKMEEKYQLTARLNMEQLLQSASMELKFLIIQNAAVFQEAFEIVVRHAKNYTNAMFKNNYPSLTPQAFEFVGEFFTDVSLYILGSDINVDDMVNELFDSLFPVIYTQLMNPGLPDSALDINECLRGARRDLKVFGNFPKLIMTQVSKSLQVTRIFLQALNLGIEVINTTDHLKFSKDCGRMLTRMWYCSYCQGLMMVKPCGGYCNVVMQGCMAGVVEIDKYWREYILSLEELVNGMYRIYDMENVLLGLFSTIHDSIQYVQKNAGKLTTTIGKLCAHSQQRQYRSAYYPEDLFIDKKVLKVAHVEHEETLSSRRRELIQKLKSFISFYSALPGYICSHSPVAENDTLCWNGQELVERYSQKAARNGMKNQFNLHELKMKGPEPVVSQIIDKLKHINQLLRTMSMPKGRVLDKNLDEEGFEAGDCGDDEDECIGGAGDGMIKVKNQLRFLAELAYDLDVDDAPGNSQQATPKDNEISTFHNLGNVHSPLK

B1: GT114 antibody (antibody, IgG1, V domains shown)
VH: DVQLQESGPGLVKPSQSLSLTCTVTGYSITSDSAWNWIRQFPGNKLEWMAYIMYSGITSYNPSLKSRISITRDTAKNQFFLQLNSVTTEDSATYYCSRGYWYFDVWGAGTTVTVSS
VL: QIVLTQSPAIMSASLGEEITLTCSASSSVSYMHWYQQKSGTSPKLLIYSTSILASGVPSRFSGSGSGTFYSLTISSVEAEDAADYYCLQWITYRTFGGGTKLEIKR
Turning to B1, the O.D. 450 in assay [1] is 0.307 O.D. 450. The Inhibitory effect (%) in assay [2] was 86%; in assay [3], 89%.

B2: GT607 antibody (antibody, IgG1, V domains shown)
VH: EVQLVESGGDVVRPGGSLKLSCAASGFTFSSYGMSWVRQLPDKRLEWVASVGNGGSYRYYPENLKGRFTISRDNTKNTLYLQISGLKSEDTAIYYCARRGAFPYFDVWGAGTTVTVSS
VL: QIVLTQSPAIMSASPGEKVTLACSASSSVTYMHWYQQKSGTSPKRWIYETSKLASGVPPRFSGSGSGTSYSLTISTMEAEDAATYYCQQWSSNPLTFGAGTKLELKR
As for B2, the Inhibitory effect (%) in assay [4] was 92%. The molecule also showed an O.D. 450 in assay [5] of 2.06 O.D. 450.

These data come from patent EP3088890B1 (Chugai Seiyaku Kabushiki Kaisha, dated 2020).
